These are literature values, as cited in article PMC11638072.

A word on the Kd: it is the free concentration of one partner at which half of the binding sites on the other are occupied at equilibrium, for simple one-to-one binding.

The series has as its target Trigger factor (Escherichia coli) (UniProt P0A850).

Chain of Trigger factor (P0A850 whole entry): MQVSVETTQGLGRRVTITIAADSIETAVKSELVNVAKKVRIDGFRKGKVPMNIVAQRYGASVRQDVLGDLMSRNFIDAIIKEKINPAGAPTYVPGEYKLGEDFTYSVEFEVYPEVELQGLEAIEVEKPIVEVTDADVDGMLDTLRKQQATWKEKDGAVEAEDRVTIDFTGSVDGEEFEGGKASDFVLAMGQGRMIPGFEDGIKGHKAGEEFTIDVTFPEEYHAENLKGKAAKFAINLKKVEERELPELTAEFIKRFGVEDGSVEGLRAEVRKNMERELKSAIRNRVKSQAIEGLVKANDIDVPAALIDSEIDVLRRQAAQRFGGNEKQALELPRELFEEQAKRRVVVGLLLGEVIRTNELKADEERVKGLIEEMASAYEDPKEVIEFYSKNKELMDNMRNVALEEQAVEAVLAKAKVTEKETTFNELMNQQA

Turning to Trigger factor (from UniProt P0A850), the dissociation constant (Kd) was 1 µM.
